In this assay the target is HLA-A*02:01 (Homo sapiens, UniProt P04439, D140Y/D185E/D98H/E176V/E277Q/G131W/G231S/I119V/I121R/I166T/I218V/L300P/L318F/N151K/N90K/P208A/P217A/Q86G/Q94H/R138H/R169H/T345S). Briefly: MHC binding assay (UV-ligand exchange, β2m ELISA, peptide exchange yield). Particulars: MHC class I binding score; binding to HLA-A*02:01 ranged by peptide exchange yield (UV-ligand exchange, β2m ELISA). In a few lines:
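Binding is expressed as peptide exchange yield: stabilized MHC complexes were quantified by β2m ELISA, with a 450 nm TMB read-out on streptavidin-coated plates. Complexes came from UV-ligand exchange, where UV irradiation cleaves a photolabile peptide so the candidate peptide can load.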
As to “316 (ILLERLWYV; listed as Homo sapiens) [compound 316]”, the Peptide exchange result is reported as ““+++” (≧50 = +++)”. Regarding “317 (SLAALVVHV; listed as Homo sapiens) [compound 317]”, the Peptide exchange result is listed as ““+++” (≧50 = +++)”. Then “318 (GLINTGVLSV; listed as Homo sapiens) [compound 318]”, with ““++” (≧20% = ++)”; and “320 (KMFEFVEPLL; listed as Homo sapiens) [compound 320]”, with ““++++” (≧75% = ++++)”. Then “321 (GLFEDVTQPGILL; listed as Homo sapiens) [compound 321]”, with ““++++” (≧75% = ++++)”. Then “322 (TLMTSLPAL; listed as Homo sapiens) [compound 322]”, with ““+++” (≧50 = +++)”; and “324 (FLYDEIEAEV; listed as Homo sapiens) [compound 324]”, with ““+++” (≧50 = +++)”.

Consider “325 (FIMPATVADATAV; listed as Homo sapiens) [compound 325]”, for which the Peptide exchange entry is recorded as ““+++” (≧50 = +++)”. Then “326 (FLPEALDFV; listed as Homo sapiens) [compound 326]”, with ““+++” (≧50 = +++)”.

Turning to “327 (GLAPFTEGISFV; listed as Homo sapiens) [compound 327]”, the Peptide exchange result is given as ““+++” (≧50 = +++)”. Consider “328 (ALNDQVFEI; listed as Homo sapiens) [compound 328]”, for which the Peptide exchange entry is ““+++” (≧50 = +++)”. Then “329 (FLVTLNNVEV; listed as Homo sapiens) [compound 329]”, with ““++++” (≧75% = ++++)”; and “330 (QLALKVEGV; listed as Homo sapiens) [compound 330]”, with ““+++” (≧50 = +++)”. On to “331 (KVDTVWVNV; listed as Homo sapiens) [compound 331]”, for which the Peptide exchange entry is on record as ““+++” (≧50 = +++)”. Then “332 (YLISELEAA; listed as Homo sapiens) [compound 332]”, with ““+++” (≧50 = +++)”; and “333 (FLPDANSSV; listed as Homo sapiens) [compound 333]”, with ““++” (≧20% = ++)”. Then “334 (TLTKVLVAL; listed as Homo sapiens) [compound 334]”, with ““+++” (≧50 = +++)”; and “335 (YSLSSVVTV; listed as Homo sapiens) [compound 335]”, with ““+++” (≧50 = +++)”; and “336 (ILLTAIVQV; listed as Homo sapiens) [compound 336]”, with ““+++” (≧50 = +++)”. Then “337 (HLLSELEAAPYL; listed as Homo sapiens) [compound 337]”, with ““++++” (≧75% = ++++)”. As to “339 (GLWEIENNPTVKA; listed as Homo sapiens) [compound 339]”, the Peptide exchange entry is reported as ““++++” (≧75% = ++++)”.

On to “340 (ALLSMTFPL; listed as Homo sapiens) [compound 340]”, for which the Peptide exchange entry is on record as ““++++” (≧75% = ++++)”. Then “341 (SQIALNEKLVNL; listed as Homo sapiens) [compound 341]”, with ““+++” (≧50 = +++)”.

As to “342 (HIYDKVMTV; listed as Homo sapiens) [compound 342]”, the Peptide exchange result is recorded as ““+++” (≧50 = +++)”. Then “343 (SLLEVNEESTV; listed as Homo sapiens) [compound 343]”, with ““+++” (≧50 = +++)”; and “344 (YLQDQHLLLTV; listed as Homo sapiens) [compound 344]”, with ““+++” (≧50 = +++)”; and “345 (VIWKALIHL; listed as Homo sapiens) [compound 345]”, with ““+++” (≧50 = +++)”. Turning to “346 (LLDSKVPSV; listed as Homo sapiens) [compound 346]”, the Peptide exchange result was ““+++” (≧50 = +++)”.

Regarding “347 (SLFKHDPAAWEA; listed as Homo sapiens) [compound 347]”, the Peptide exchange result was ““++++” (≧75% = ++++)”. Then “348 (ILLDVKTRL; listed as Homo sapiens) [compound 348]”, with ““++++” (≧75% = ++++)”; and “349 (SLTEYLQNV; listed as Homo sapiens) [compound 349]”, with ““++++” (≧75% = ++++)”. Then “350 (ALLDVTHSELTV; listed as Homo sapiens) [compound 350]”, with ““+++” (≧50 = +++)”; and “351 (SLIPNLRNV; listed as Homo sapiens) [compound 351]”, with ““+++” (≧50 = +++)”; and “352 (SLLELLHIYV; listed as Homo sapiens) [compound 352]”, with ““+++” (≧50 = +++)”. Regarding “353 (YLFEMDSSL; listed as Homo sapiens) [compound 353]”, the Peptide exchange result is ““++” (≧20% = ++)”. Then “354 (LILEGVDTV; listed as Homo sapiens) [compound 354]”, with ““++” (≧20% = ++)”; and “355 (SIQQSIERLLV; listed as Homo sapiens) [compound 355]”, with ““++” (≧20% = ++)”.

Take “356 (KLLGKLPEL; listed as Homo sapiens) [compound 356]”: the Peptide exchange result was ““+++” (≧50 = +++)”.

For the substance “357 (SMHDLVLQV; listed as Homo sapiens) [compound 357]”, the Peptide exchange result is recorded as ““+++” (≧50 = +++)”. Then “358 (ALDEYTSEL; listed as Homo sapiens) [compound 358]”, with ““++++” (≧75% = ++++)”; and “359 (YLLPESVDL; listed as Homo sapiens) [compound 359]”, with ““+++” (≧50 = +++)”; and “361 (ALYELEGTTV; listed as Homo sapiens) [compound 361]”, with ““+++” (≧50 = +++)”.

In the case of “362 (TLYGLSVLL; listed as Homo sapiens) [compound 362]”, the Peptide exchange entry is recorded as ““+++” (≧50 = +++)”. Then “363 (KVLDVSDLESV; listed as Homo sapiens) [compound 363]”, with ““++” (≧20% = ++)”; and “364 (LLQNEQFEL; listed as Homo sapiens) [compound 364]”, with ““+++” (≧50 = +++)”; and “365 (YVIDQGETDVYV; listed as Homo sapiens) [compound 365]”, with ““+++” (≧50 = +++)”.

Consider “366 (RLLDMGETDLML; listed as Homo sapiens) [compound 366]”, for which the Peptide exchange entry is on record as ““+++” (≧50 = +++)”. Then “367 (SLQNHNHQL; listed as Homo sapiens) [compound 367]”, with ““+++” (≧50 = +++)”. Then “369 (GLFPEHLIDV; listed as Homo sapiens) [compound 369]”, with ““+++” (≧50 = +++)”; and “370 (SLLQDLVSV; listed as Homo sapiens) [compound 370]”, with ““+++” (≧50 = +++)”.

“371 (FLQAHLHTA; listed as Homo sapiens) [compound 371]”: the Peptide exchange result is listed as ““++++” (≧75% = ++++)”. Then “372 (TMLLNIPLV; listed as Homo sapiens) [compound 372]”, with ““++” (≧20% = ++)”; and “373 (SLLEDKGLAEV; listed as Homo sapiens) [compound 373]”, with ““++” (≧20% = ++)”. Then “374 (FLLQQHLISA; listed as Homo sapiens) [compound 374]”, with ““++” (≧20% = ++)”; and “375 (SLTETIEGV; listed as Homo sapiens) [compound 375]”, with ““++” (≧20% = ++)”. Then “376 (AMFESSQNVLL; listed as Homo sapiens) [compound 376]”, with ““++” (≧20% = ++)”.

Regarding “377 (FLLDSSASV; listed as Homo sapiens) [compound 377]”, the Peptide exchange entry is ““++” (≧20% = ++)”. Then “378 (ALGYFVPYV; listed as Homo sapiens) [compound 378]”, with ““+++” (≧50 = +++)”.

Regarding “379 (IMEGTLTRV; listed as Homo sapiens) [compound 379]”, the Peptide exchange result is ““++” (≧20% = ++)”. Then “380 (TLIEDEIATI; listed as Homo sapiens) [compound 380]”, with ““++” (≧20% = ++)”. Then “381 (FIDEAYVEV; listed as Homo sapiens) [compound 381]”, with ““++” (≧20% = ++)”; and “382 (ALQNYIKEA; listed as Homo sapiens) [compound 382]”, with ““++” (≧20% = ++)”. Then “383 (ALLELENSVTL; listed as Homo sapiens) [compound 383]”, with ““+++” (≧50 = +++)”; and “385 (SLLEQGLVEA; listed as Homo sapiens) [compound 385]”, with ““++” (≧20% = ++)”; and “386 (ILFRYPLTI; listed as Homo sapiens) [compound 386]”, with ““+++” (≧50 = +++)”. Consider “387 (ALFQATAEV; listed as Homo sapiens) [compound 387]”, for which the Peptide exchange entry is given as ““++++” (≧75% = ++++)”. Then “388 (SLTIDGIRYV; listed as Homo sapiens) [compound 388]”, with ““+++” (≧50 = +++)”; and “389 (LLADVTHLL; listed as Homo sapiens) [compound 389]”, with ““++” (≧20% = ++)”. Then “390 (ALFMKQIYL; listed as Homo sapiens) [compound 390]”, with ““+++” (≧50 = +++)”; and “391 (YVYPQRLNFV; listed as Homo sapiens) [compound 391]”, with ““+++” (≧50 = +++)”.

The values are drawn from patent publication US20170002055A1, “Novel peptides and combination of peptides for use in immunotherapy against ovarian cancer and other cancers” (immatics biotechnologies GmbH, priority 2015, published 2017).
